Experiments:
[1] = system: cultured fibroblast NIH3T3 cells; assay: Real-time monitoring of luminescence under control of the Bmal1 promoter in living cells; type: cell-based; conditions: PEST-fused luciferase, NIH3T3, 200 μM D-luciferin
Procedure: Short lifespan-type luciferase was made by ligating a PEST sequence (SEQ ID NO: 7) of murine ornithine decarboxylase to a wild-type (SEQ ID NO: 1) and improved-type (SEQ ID NO: 2) click beetle luciferase cDNA. Vectors in which these had been inserted downstream of a murine circadian clock gene Bmal1 promoter (GenBank Accession No. AB064982) were made. Subsequently, 1 μg of each vector was introduced into cultured fibroblast NIH3T3 cells seeded in a 35 mm culture dish by a lipofection method (LipofectAMINE PLUS, Invitrogen), and the cells were cultured at 37° C. for 24 hours and treated with a DMEM medium containing 100 nM dexamethasone for 2 hours. The medium was replaced with a DMEM medium containing 200 μM D-luciferin and 10% (w/v) bovine serum, and then one minute of luminescence was measured every 15 minutes for 5 days in real time using a real-time gene expression measurement apparatus (AB2500 supplied from ATTO Corporation) (FIG. 1A).

[2] = system: cultured fibroblast NIH3T3 cells; assay: Transient assay of Bmal1 promoter activity, luminescence of cell extract; type: cell-based; conditions: PEST-fused luciferase, NIH3T3, cell lysate, luminometer
Procedure: The aforementioned reporter vector (200 ng) was introduced into the cultured fibroblast NIH3T3 cells seeded in a 24-well plate by the lipofection method, the cells were cultured at 37° C. for 24 hours, and disrupted with 300 μL of a cell lysis agent (cultured cell lysis agent for PicaGene Dual Seapansy supplied from Toyo Ink MFG Co., Ltd.). A luminescent substrate solution (50 μL) (PicaGene luminescence reagent II) was added to a cell extract solution (50 μL), and 20 seconds of luminescence was measured using a luminometer (AB2250 supplied from ATTO Corporation) (FIG. 1B).

[3] = system: cultured fibroblast rat1 cells; assay: Real-time monitoring of luminescence under control of the Bmal1 promoter in living cells; type: cell-based; conditions: PEST-fused luciferase, luminescence amount integrated within 24 hours
Procedure: Short lifespan-type luciferase was made by ligating the PEST sequence (SEQ ID NO: 7) of murine ornithine decarboxylase to firefly luciferase cDNA (Luc(+), supplied from Promega) derived from Photinus pyralis produced in North America and improved-type click beetle luciferase cDNA (SEQ ID NO: 2). Vectors in which these had been inserted downstream of a murine circadian clock gene Bmal1 promoter (GenBank Accession No. AB064982) were made. Subsequently, 1 μg of each vector was introduced into cultured fibroblast rat1 cells seeded in a 35 mm culture dish by the lipofection method (LipofectAMINE PLUS), and the cells were cultured at 37° C. for 24 hours and treated with the DMEM medium containing 100 nM dexamethasone for 2 hours. The medium was replaced with a DMEM medium containing 200 μM D-luciferin and 10% (w/v) bovine serum, and then one minute of luminescence was measured every 15 minutes for 5 days using the real-time gene expression measurement apparatus (AB2500 supplied from ATTO Corporation) (FIG. 2).

[4] = system: cultured fibroblast NIH3T3 cells; assay: Bioluminescence imaging of cells expressing FLAG-tagged luciferase; type: cell-based; conditions: CMV promoter, FLAG tag, NIH3T3, 200 μM D-luciferin, CCD camera, three minutes
Procedure: A FLAG tag sequence (MDYDDDDK; SEQ ID NO: 15) was ligated to the N terminus of the firefly luciferase cDNA (Luc(+), supplied from Promega) derived from Photinus pyralis produced in North America and the improved-type click beetle luciferase cDNA (SEQ ID NO: 2). The expression vector (2 μg) obtained by inserting one of them downstream of the CMV promoter was introduced in the cultured fibroblast NIH3T3 cells by the lipofection method, and the cells were cultured at 37° C. for 24 hours. Subsequently, the medium was replaced with a DMEM medium containing 200 μM D-luciferin and 10% (w/v) bovine serum, and three minutes of bioluminescence was measured using a CCD camera (Cellgraph supplied from ATTO Corporation) cooled to −60° C.

[5] = system: HeLa S3 cells; assay: Analysis of AP1 response sequence in living cells, 96-well plate; type: cell-based; conditions: HeLa S3, TPA or EGF stimulation, 0.2 mM D-luciferin
Procedure: HeLa S3 cells were seeded at 3×10^4 cells (100 μL) per well in a 96-well white opaque plate, and cultured in Dulbecco's Modified Eagle's Medium DMEM (Nissui Pharmaceutical Co., Ltd.) containing 10% FCS. The following day, 0.2 μg per well of the plasmid pELuc-AP1 or pGL3-AP1 (diluted with 25 μL of DMEM containing no FCS) and 0.5 μL of Lipofectamine 2000 transfection reagent (Invitrogen, diluted with 25 μL of DMEM)) were mixed and added to the cells in the medium replaced with 100 μL of DMEM+0.1% FCS, which was incubated for 24 hours to introduce the gene. The following day, the medium was either not replaced, or replaced with DMEM+0.1% FCS (further containing 0.2 mM D-luciferin) containing 0.01 μM TPA (Sigma), 0.1 μM TPA, 1 μM TPA or 10 ng/mL of EGF, and the cells were incubated for 5 hours. Subsequently, the luminescence was measured using a plate reader 1420 ARVOMX (Perkin Elmer). In the graph for measurement values, readout values were plotted, and in the graph for induction ratios, an expression induction ratio at each concentration calculated when the value in an additive-free condition equaled 1 was plotted.

[6] = pH dependency of luminescence of recombinant luciferase enzyme preparations; type: biochemical; conditions: pH 6.6 to 8.8, relative activity with pH 8.0 set as 100
Procedure: A click beetle-derived luciferase enzyme preparation was acquired as a recombinant body by inserting the luciferase gene PtGRm in the vector pELuc-test (Toyobo Co., Ltd.) into the expression vector for Escherichia coli and expressing it in Escherichia coli. As a firefly luciferase enzyme preparation, QuantiLum Recombinant Luciferase (Promega, described as fLuc in the figure) was used. For each enzyme preparation, a luminescence reagent containing 15 mM MgSO4, 6 mM EDTA, 4 mM Co-enzyme A, 1.2 mM D-luciferin, 6 mM DTT, 0.2% Nonidet P40, 2 mM ATP and 2 μg/mL of the enzyme preparation was prepared. Then, 100 μL of ATP solution at […], 0.2 mM or 1 mM and 100 μL of 100 mM Hepes-NaOH pH 6.6 to 8.8 were mixed, and the luminescence was measured.
A graph of luminescence measurement values and a graph obtained by plotting the relative activity at each pH when the measurement value at pH 8.0 was set as 100 in each luciferase are shown in FIG. 12.

B1: improved-type click beetle luciferase: Pyrearinus termitilluminans click beetle luciferase expressed from the modified gene of SEQ ID NO: 2 (protein)
chain: MEREKNVVYGPEPKHPLGNFTAGEMLYNALHKHSHIPQAILDVMGNESLSYQEFFDTTVKLGQSLQNCGYKMNDVVSICAENNKRFFIPIISAWYIGMVVAPVNEDYIPDELCKVTGISKPILVFTTRKILPKVLEVKDRTNYIKRIIILDSEENLLGCESLHNFMSRYSDNNLQTFKPLHYDPVDQVAAILCSSGTTGLPKGVMQTHRNICVRLTHASDPRVGTQLIPGVSVLAYLPFFHAFGFSINLGYFMVGLRVVMLRRFNQEVFLKAIQDYEVRSVINVPSTILFLSKSPLVDKYDLSTLAELCCGAAPLAKEVAEIAVKRLNLPGIRCGYGLTESTSANIHTLHNEFKSGSLGKVTPYMAAKIIDRNTGEALGPNQVGELCIWGPMVTKGYVNNPQATKEAIDDDGWLHSGDFGYYDEDEYFYIVDRYKELIKYKGYQVAPVELEEILLQHPGIRDVAVVGIPDIEAGELPAGFVVKQPGAQLTAKEVYDFLAQRVSHSKYLRGGVRFVDSIPRNVTGKISRKELREALMEKASKL
modifications: Pyrearinus termitilluminans
With B1 the “luminescence intensity relative to wild-type luciferase” value [1] was “about 100 times”, the “luminescence intensity relative to wild-type luciferase” value [2] was “about 150 times” and the “luminescence intensity relative to firefly luciferase derived from Photinus pyralis” value [3] was no less than 15 times. For the same molecule, the “bioluminescence signal of cells compared with firefly luciferase” value [4] was “clearly emit strong signals”, the “luminescence intensity relative to conventional luciferase” value [5] was 15 times and the “variation of luminescence activity due to pH compared with firefly luciferase” value [6] was “variation due to the pH values is smaller”.

Reference: patent US8383797B2, “Luciferase gene optimized for use in imaging of intracellular luminescence” (Toyo Boseki Kabushiki Kaisha, priority 2005, dated 2013)
